In one test the test system is Foc_TR4. Briefly: In vitro spore germination and mycelial growth assay. It is filed as cell-based, Fusarium oxysporum f.sp. cubense Tropical Race 4.
The subject of test [1] is TR4 Fusarium oxysporum f sp. cubense (Foc). Briefly: ARSS greenhouse assay of acclimated tissue culture banana plants. The test is classed as in vivo. Particulars: transgenic banana lines per payload, FIG. 15.

Results on two molecules are retold here after US20240141372A1, “TRANSGENIC BANANA PLANTS HAVING INCREASED RESISTANCE TO FUSARIUM OXYSPORUM TROPICAL RACE 4 AND METHODS OF PRODUCING SAME” (Elo Life Systems, priority 2022, published 2024).

For orientation: IC50 means the concentration that inhibits the measured activity by half.

Where two headings read alike, the source gives them in different places.

B1: Sm-AMP-D1: Sm-AMP-D1 anti-microbial peptide, tested as purified protein in vitro (protein)
chain: MAKTVLGIHVTFLTLLFAVILLNDVMYTPVEGKICERASGTWKGICIHSNDCNNQCVKWENAGSGSCHYQFPNYMCFCYFNC
In the case of B1, the IC50 in the test on Foc_TR4 (Foc_TR4, in vitro fungal growth inhibition assay, read-out: IC50) stood at 2.2 µM. For the same molecule, the disease necrosis in test [1] came to 27%.

B2: Ma02_p13180.1: TLP antimicrobial protein, Musa acuminata (protein, listed as Musa acuminata)
chain: ATFTLTNNCEYTVWPGVLSSAGTAPLSITGFALQQGESRSLDVPAAWSGRFWGRTLCAADASGKFSCGTGDCGSGAVECSGSGAAPPATLAEFTLDGSGGMDFYDVSLVDGYNLPMLVVPQGGSGGACSSTGCLVDLNGVCPSDLKVVLPTSEGGSESVACRSACETFGSPQYCCSGDYGNPNTCKPSSYSQFFKNACPRAYSYAYDDATSTFTCASANYLITFCPSTTSQKSSDSNPEAAGIPSSNNSTMIYSSEEVSHATPTVPRVAVALALAVVALCLGF
Take B2: in the test on Foc_TR4 (Foc_TR4 spores, purified Pichia-secreted protein, low ionic strength media, 25° C., A595 at 48 hours, read-out: IC50 (μM, CE fraction)), the IC50 is greater than 30 µM.
